Source: the nanobody polyreactivity screen of Harvey et al. (2022)

Assay: yeast display, Sf9 membrane polyspecificity reagent, FACS + sequencing; frameworks hold sequencing errors
Method in brief: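 Using colony PCR, genes from sorted yeast display clones were amplified, then sequenced on MiSeq at 2 × 250 and filtered by CDR length. The clones had been stained with 10% biotinylated, detergent-solubilized Sf9 membrane reagent for 1 hour at 4 °C and sorted by FACS into low and high (top ~1%) gates on anti-HA and streptavidin fluorescence. Polyreactivity labels come from the gate of origin.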

QVQLVESGGGLFQAGGILILSFAASGNTLNYYTMGWYRQAPGKERELVAAISSSGGSTYYAESVKGSFTISRDYAKNTVYLHMNRLKPEDNAVYFCNDSVINEMNNWGQGTQVTVSS
polyreactivity (PSR sort gate): low polyreactivity

QVQLVESGGGLVQAGGSLRLSCAASGRTMWAYSMGWYRPAHGKERELVAAITGSGGSTYYADSVKGRFTISRDNAKNTVYLQMNSLKPEDTAVYYCAAYSRTLHYDSWGQGTHVTVSS
polyreactivity (PSR sort gate): high polyreactivity

QVQLVESGRGLVQAGGSLRLSCAASGFTFYIYAMGWYRQAPGKERELVAAINFGGGGTYYADSVKGRFTISRDNAKNTVYLQMNSLKPEDTAVYYCAADYWYDYYSTEYDYWGQGTQVTVSS
polyreactivity (PSR sort gate): low polyreactivity

QVQLVESGGGLVQAGRSLRLSCAASGFTFGYYAMGWYRQAPGKERELVASISITAGSTYYADSVKGRFTISRDNAKNTVYLQMNSLTPEDTAVYYCAAKRRTRQSYYTEYYWGQGTQVTVSS
polyreactivity (PSR sort gate): high polyreactivity

QFQLLESGGGLVQAGGSLRLSCAASGFISDVYAMGWYRQAPGKERELDAVITWRGSTYYADSVKGSFTISRDNAKNTVYLQMNSLKPEDTALYYCAAESQGDWAFDYWGQGTQVTVSS
polyreactivity (PSR sort gate): low polyreactivity

QVQLVESGGGLVQAGGSLRLSCAASGRTFGIYAMGWYRQAPGKERELVAAITGRGGSTHYADSVKGRFSISRDNAKNTVYLQMNSLKPEDTAVYYCAADYRYNRGITSNKDYDYWGQGTQVTVSS
polyreactivity (PSR sort gate): low polyreactivity

QVQLVESGGGLVQAGGSLRLSCAASGRTFSVNDMGWYRQAPGKERELVAAISFSGGSTYYADSVKGRFTISRDNAKNTVYLQMNSLKPEDTAVYYCAAEAYPSWFYVITGFGIYDYWGQGTQVTVSS
polyreactivity (PSR sort gate): high polyreactivity

QVQLVESGGGLVQAGGSLRLSCAASGSIFVNNAMVWYRQAPGKERELVAAISSRGGSTYYADSVKGRFTISRDNAKNTVYLQMNSLKPEDTAVYYCAAAGYGKVRGDYWGQGTQVTVSS
polyreactivity (PSR sort gate): low polyreactivity

QVQLVESGGGLVQAGGSLRLSCAASGFIFGRYAMGWYRQAPGKERELVAAISRSGARTYYADSVKGRFTISRDNAKNTVYLQMNSLKPEDTAVYYCARYQPRVSFDYWGQGTQVTVSS
polyreactivity (PSR sort gate): high polyreactivity

QVQLVESGGGLVQAGGSLRLSCAASGITFYFNTMGWYRQAPGKERELVASIRNTGSTYADSVKGRFTISRDNAKNTVYLQMNSLKPEDTAVYYCAARRRKYYRGEYGYWGQGTQVTVSS
polyreactivity (PSR sort gate): high polyreactivity

QVQLVESGGGLVQAGGSLRLSCAASGSTFTLYAMGWYRKAPGKERELVAAISRSGGRTYYADSVKGRFTISRDNAKNTVYLQMNSLKPEDTAVYYCNAPYKQDYDYWGQGTQVTVSS
polyreactivity (PSR sort gate): high polyreactivity

QVQQPESGGGLVQAGGSLRLSCAASGTIFQLTVMGRSRQAPGKERELVASIDYGGNPNYADSVKGRFTISRDNAKNTVYLQMNCLKPEDTAVYYCAASSDSWTTHPYWGQGTQVTVSS
polyreactivity (PSR sort gate): low polyreactivity

QVQLVESGGGLVQAGGSLRLSCAASGLTFSYNAMGWYIQAPGTERELVAAINWSGGSTYYADSVKGRFTISRDNAKNTVYLPMNSLKPEDTAVYYCAADIYSKGGRGLYYWGQGTQLTVSS
polyreactivity (PSR sort gate): high polyreactivity

QVQLVESGGGLVQAGGSLRLSCAASGRIFPSYAMGWYRQAPGKERELVATISSGGRTYYADSVKGRFTISRDNAKNTVYLQMTSLKPEDTAVYYCARRSLYHVRTQIYEYWGQGTQVTVSS
polyreactivity (PSR sort gate): low polyreactivity

QVQLVESGGGLVQAGGSLRLSCAASGSILSGYAMGWYRQAPGKERELVAAISWSGGSTYYADSVKGRFTISRDNAKNTVYLQMNSLKPEDTAVYYCAAASVPWGGYYWGQGTQVTVSS
polyreactivity (PSR sort gate): low polyreactivity

QVQLVESGGGIVQAGGSLRLSCAASGSIFPDNAMGWYRQAPGKERELVAAIDKGTGSTNYADSVKGRFTISRDNAKNTVYLQMNSLKPEDTAVYYDYWGQGTQVSVSS
polyreactivity (PSR sort gate): low polyreactivity

QVQLVESGGGLVQAGGSLRLSCAASGRIFSYYAMGWYRQAPGKERELVAAISRTGGRTYYADSVKGRFTISRDNAKNTVYLQKNSLKPEDTAVYYCNVVGRRYWHWDQALDYWGQGTQVTVSS
polyreactivity (PSR sort gate): high polyreactivity

QVQLQESGGGLVQAGGRLRLSCAASGTISGPHVMGWYRQAPGKEREFFAAINVGANTYYADNVKGRYTISRDNAKNTVYLQMNSLKPEDTAVYYCAAVYYGDIGHEYWGQGTQVTVSC
polyreactivity (PSR sort gate): low polyreactivity

QVQLVESGGGLVQAGGSLRLSCAASGFTLDVNAMGLYRHAPGKERELVATISWGGASRYYADSVKGRFTISRDNAKNTVYLQMNRLKPEDTAVFYCAAQFYYPDDKGGYDYWGQGTQVTVSS
polyreactivity (PSR sort gate): low polyreactivity

QVQLVESGGGLVQAGGSLRLICAASGSTFYSYAMGWYRQAPGKERELVAVISWSGGSTYYADSVKGRFTISRDNAKNTVYLQMNSLKPEDTAVYYCAAESYYSDDWYYAYYYWGQGTQVTVSS
polyreactivity (PSR sort gate): high polyreactivity

QVQLVESGGGLVQAGGSLRVSCAASGSTFLVYARGWYRQAPGKERELVAAISWSGGSTYYADSVKGRFTISRDNAKKTVYLQMNSLKPEDTAVYYCNAEGIYRQPRGYVYRYDYWGQGTQVTVSS
polyreactivity (PSR sort gate): high polyreactivity

QVQLVETGGGLVQAGGSLRLSCAASGSTFYDNAMGWYRQAPGKERELVAAITRSGTRTYYADSVKGRFTISRDNAKNTVYLQMNSLKPEDTAVYYCNVVLYSYVTYRIITHGTYGYWGQGTQVTVSS
polyreactivity (PSR sort gate): high polyreactivity

QVQLVESGGGLVQAGGSLRLSCAASGSIFGYNAMGWYRQAPGKEREFVAAISWSGGRTYYADSVKGRFTISRDNAKYTVYLQMNSLKPEDTAVYYCAAPSRPAPRFDYWGQGTQVTVSS
polyreactivity (PSR sort gate): low polyreactivity

QVQLVESGGGLVQAGGSLRLSCAASGRTFRRYTMGWYRQAPGKERELVATISKTGGSTYYADSVKGRFTISRDNAKNTVYLQMNSLKPEDTAVYYCAARSVALFIMYYWGQGTQVTVSS
polyreactivity (PSR sort gate): high polyreactivity

QVQLVESGGVLVQAGVSLRLSCAASGRNFLWYVMGCYRQAPGKERELVAAISSGGRTYYADSVKGRFTSSRDNAKHTLYLQMNSLKPEDTAVYYCAAVRRYLKAAYGYWGQGTQVTVSS
polyreactivity (PSR sort gate): low polyreactivity

QVQLVESGGGLVQAGGSLRLSCAASGSTFVVYAMGWSRQAPGKERELVAAISTSDTSTYYADSVKGRFTISRDNAKNTVYLQMNSLKPEDTAVYDCAADGTYVYINEYEYWGQGTQVTVSS
polyreactivity (PSR sort gate): low polyreactivity

QVQLVESGGGLVQAGGSLRLTCAASGRIFNTYAMGWYRQAPGKERELVAAITRSAGRTYYADSVKGRFTISRDNAKNTVYLQMNSLKPEDTAVYYCNAEGSSVLTGYCGYPPYWDTYDYWGQGTQVTLSS
polyreactivity (PSR sort gate): low polyreactivity

QVQLVESGGGLVQAGGSLRVSCAASGRILPFYAMGWYRQAPGKERELVATISWTSDSTYYADSVKGRFTISRDNAKNTVSLQMNSLKPEDTAVYYCAREYTYTYASTVIYDHWGQGTQVTVSS
polyreactivity (PSR sort gate): low polyreactivity

QFQLVESVGGLVQAGGSLRLSLASSGSIFGPNTMGWYRQAPGKERELVAAIRGGGSTNYADSVKGRFTISRDNAKNTVYLQMNSLKPEDTAVYYCNATWNLFPGFLDRYDYWGQGTQVTVSS
polyreactivity (PSR sort gate): low polyreactivity

QVQLVESGGGLVQAGGSLRLSCAASGYTFVYYAMGWYRQAPGKERELVAAITGNSGSTYADSVKGRFTISRDNAKNTVYLQMNSLNPEDTAVYYCAADQTGQDWYYVEFDYWGQGTQVTVSS
polyreactivity (PSR sort gate): low polyreactivity

QVQLVESGGGLVQAGGTLRLSCAASGSTFELNVMGWYRQAPGKERELVAAISSGTSTNYADSVKGRFTISRDNAKYTVYLHLKSVKPVDTAVYYCAADPFTIPTSDFYYWGQVTQVTVSS
polyreactivity (PSR sort gate): low polyreactivity

QVHLVESGGGLVQAGGSLRLTSAASGRIFGRNAMGWYRQAPGKEREFVAAISRSGASRYYADSVKGRFTISRDNAKNTVYLQMNRLKPEDTAVYYCARTTRQSSAYTYSDEYDYWGQGTQVTVSS
polyreactivity (PSR sort gate): high polyreactivity
